The chains are these.
T1: TNFR1 (Homo sapiens, UniProt P19438)
T1 chain: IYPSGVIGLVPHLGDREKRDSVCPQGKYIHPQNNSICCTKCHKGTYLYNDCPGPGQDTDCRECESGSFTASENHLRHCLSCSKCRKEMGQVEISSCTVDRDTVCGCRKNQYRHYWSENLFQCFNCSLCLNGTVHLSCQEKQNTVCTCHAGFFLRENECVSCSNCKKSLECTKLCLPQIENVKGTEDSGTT

B1: K88Y (designed binder)
chain: SMEEEVEKAAKEYEKKKKEAIEKHLEKLKAKDKEAAERFLKELEEAAKEYAKDEAKTMSEEEAKRRAKKYKEKVLLSELSEEEQKEIYEAEEKLVRTILKYVEEAAK
B2: K8P (designed binder)
chain: B1 chain with K8P, Y88K
B3: A47E (designed binder)
chain: B1 chain with A47E, Y88K
B4: Q84E (designed binder)
chain: B1 chain with Q84E, Y88K
B5: R38E (designed binder)
chain: B1 chain with R38E, Y88K
B6: L76S (designed binder)
chain: B1 chain with L76S, Y88K
B7: E37G (designed binder)
chain: B1 chain with E37G, Y88K
B8: K18N (designed binder)
chain: B1 chain with K18N, Y88K
B9: A10E (designed binder)
chain: B1 chain with A10E, Y88K
B10: T97Y (designed binder)
chain: B1 chain with Y88K, T97Y
B11: Y70M (designed binder)
chain: B1 chain with Y70M, Y88K
B12: E34M (designed binder)
chain: B1 chain with E34M, Y88K
B13: D53K (designed binder)
chain: B1 chain with D53K, Y88K
B14: R65L (designed binder)
chain: B1 chain with R65L, Y88K
B15: E19I (designed binder)
chain: B1 chain with E19I, Y88K
B16: Y70T (designed binder)
chain: B1 chain with Y70T, Y88K
B17: E34H (designed binder)
chain: B1 chain with E34H, Y88K
B18: E104M (designed binder)
chain: B1 chain with Y88K, E104M
B19: Q84F (designed binder)
chain: B1 chain with Q84F, Y88K
B20: E3S (designed binder)
chain: B1 chain with E3S, Y88K
B21: L28F (designed binder)
chain: B1 chain with L28F, Y88K
B22: R96P (designed binder)
chain: B1 chain with Y88K, R96P
B23: Y13N (designed binder)
chain: B1 chain with Y13N, Y88K
B24: F39N (designed binder)
chain: B1 chain with F39N, Y88K
B25: E89S (designed binder)
chain: B1 chain with Y88K, E89S
B26: A90I (designed binder)
chain: B1 chain with Y88K, A90I
B27: K31I (designed binder)
chain: B1 chain with K31I, Y88K
B28: K69Q (designed binder)
chain: B1 chain with K69Q, Y88K
B29: L43K (designed binder)
chain: B1 chain with L43K, Y88K
B30: R38I (designed binder)
chain: B1 chain with R38I, Y88K
B31: E3R (designed binder)
chain: B1 chain with E3R, Y88K
B32: K27D (designed binder)
chain: B1 chain with K27D, Y88K
B33: K85Q (designed binder)
chain: B1 chain with K85Q, Y88K
B34: L28E (designed binder)
chain: B1 chain with L28E, Y88K
B35: Y101G (designed binder)
chain: B1 chain with Y88K, Y101G
B36: E34V (designed binder)
chain: B1 chain with E34V, Y88K
B37: K23V (designed binder)
chain: B1 chain with K23V, Y88K
B38: E86Q (designed binder)
chain: B1 chain with E86Q, Y88K
B39: S1S (designed binder)
chain: B1 chain with Y88K
B40: A46Y (designed binder)
chain: B1 chain with A46Y, Y88K
B41: E78L (designed binder)
chain: B1 chain with E78L, Y88K
B42: S77R (designed binder)
chain: B1 chain with S77R, Y88K
B43: E103V (designed binder)
chain: B1 chain with Y88K, E103V
B44: E89G (designed binder)
chain: B1 chain with Y88K, E89G
B45: K88R (designed binder)
chain: B1 chain with Y88R
B46: K107G (designed binder)
chain: B1 chain with Y88K, K107G
B47: E78S (designed binder)
chain: B1 chain with E78S, Y88K
B48: A36T (designed binder)
chain: B1 chain with A36T, Y88K
B49: K18R (designed binder)
chain: B1 chain with K18R, Y88K
B50: L99N (designed binder)
chain: B1 chain with Y88K, L99N
B51: K100S (designed binder)
chain: B1 chain with Y88K, K100S
B52: K69W (designed binder)
chain: B1 chain with K69W, Y88K
B53: E62P (designed binder)
chain: B1 chain with E62P, Y88K
B54: E22V (designed binder)
chain: B1 chain with E22V, Y88K
B55: K68M (designed binder)
chain: B1 chain with K68M, Y88K

Numbering of substitutions follows the chain as printed. Names may count otherwise.

The target in this assay is T1, TNFR1. The assay is described as follows: yeast display SC50.
Turning to B1, the “apparent Kd (screen)” value was found to be 0.49 nM.

For the molecule B2, the “apparent Kd (screen)” value amounted to 3.63 nM.

On to B3, for which the “apparent Kd (screen)” value is 0.0802 nM.

With B4, the “apparent Kd (screen)” value was 4.39 nM.

Take B5: the “apparent Kd (screen)” value came out at 2.73 nM.

For B6, the “apparent Kd (screen)” value was 4.83 nM.

Take B7: the “apparent Kd (screen)” value was found to be 0.446 nM.

As to B8, the “apparent Kd (screen)” value is 0.539 nM.

Turning to B9, the “apparent Kd (screen)” value came out at 1.27 nM.

Turning to B10, the “apparent Kd (screen)” value worked out at 0.539 nM.

For B11, the “apparent Kd (screen)” value worked out at 6.43 nM.

Turning to B12, the “apparent Kd (screen)” value is 0.446 nM.

As for B13, the “apparent Kd (screen)” value came out at 0.208 nM.

As for B14, the “apparent Kd (screen)” value stood at 1.05 nM.

Take B15: the “apparent Kd (screen)” value was determined as 0.869 nM.

As for B16, the “apparent Kd (screen)” value came out at 7.07 nM.

Turning to B17, the “apparent Kd (screen)” value was found to be 0.446 nM.

As for B18, the “apparent Kd (screen)” value turned out to be 0.869 nM.

Regarding B19, the “apparent Kd (screen)” value turned out to be 5.84 nM.

Turning to B20, the “apparent Kd (screen)” value worked out at 2.73 nM.

For the molecule B21, the “apparent Kd (screen)” value came to 0.446 nM.

B22: the “apparent Kd (screen)” value is 1.27 nM.

For the molecule B23, the “apparent Kd (screen)” value was 0.446 nM.

Consider B24, for which the “apparent Kd (screen)” value is 3.3 nM.

As to B25, the “apparent Kd (screen)” value is 0.49 nM.

Consider B26, for which the “apparent Kd (screen)” value is 1.4 nM.

As for B27, the “apparent Kd (screen)” value came out at 0.869 nM.

On to B28, for which the “apparent Kd (screen)” value was 0.446 nM.

Consider B29, for which the “apparent Kd (screen)” value stood at 0.869 nM.

B30: the “apparent Kd (screen)” value was 1.4 nM.

B31: the “apparent Kd (screen)” value amounted to 1.4 nM.

Regarding B32, the “apparent Kd (screen)” value is 0.956 nM.

On to B33, for which the “apparent Kd (screen)” value is 0.539 nM.

Turning to B34, the “apparent Kd (screen)” value was 0.539 nM.

As to B35, the “apparent Kd (screen)” value was determined as 0.446 nM.

With B36, the “apparent Kd (screen)” value was determined as 0.446 nM.

B37: the “apparent Kd (screen)” value was found to be 0.869 nM.

As for B38, the “apparent Kd (screen)” value was determined as 0.446 nM.

For the molecule B39, the “apparent Kd (screen)” value amounted to 0.539 nM.

On to B40, for which the “apparent Kd (screen)” value worked out at 0.49 nM.

In the case of B41, the “apparent Kd (screen)” value amounted to 0.79 nM.

On to B42, for which the “apparent Kd (screen)” value was 1.86 nM.

In the case of B43, the “apparent Kd (screen)” value amounted to 0.539 nM.

With B44, the “apparent Kd (screen)” value was 1.4 nM.

With B45, the “apparent Kd (screen)” value turned out to be 0.49 nM.

B46: the “apparent Kd (screen)” value was found to be 1.05 nM.

Regarding B47, the “apparent Kd (screen)” value was 1.54 nM.

For the molecule B48, the “apparent Kd (screen)” value was found to be 1.69 nM.

Turning to B49, the “apparent Kd (screen)” value was determined as 0.79 nM.

As for B50, the “apparent Kd (screen)” value was 6.43 nM.

Consider B51, for which the “apparent Kd (screen)” value was 0.653 nM.

B52: the “apparent Kd (screen)” value is 11.4 nM.

For B53, the “apparent Kd (screen)” value was 15.2 nM.

Consider B54, for which the “apparent Kd (screen)” value came out at 1.16 nM.

Regarding B55, the “apparent Kd (screen)” value amounted to 1.27 nM.
